{
  "source": "paper doi:10.1101/2025.01.07.631770",
  "about": "“Backbone and Sidechain ^1H, ^15N and ^13C Resonance Assignments of a Multidrug Efflux Membrane Protein using Solution and Solid-State NMR” (bioRxiv, 2025)",
  "proteins": {"B1": {"name": "S64V-EmrE (natural protein, E. coli, UniProt P23895 1-110, looked up)", "chain": "MNPYIYLGGAILAEVIGTTLMKFSEGFTRLWPSVGTIICYCASFWLLAQTLAYIPTGIAYAIWVGVGIVLISLLSWGFFGQRLDLPAIIGMMLICAGVLIINLLSRSTPH", "notes": "also called EmrE mutant S64V"}},
  "target": "the molecule itself",
  "assay": "solid-state NMR (13C-detected MAS, 2D NCA; two sets of peaks); S64V-EmrE in POPC proteoliposomes, 25:1 lipid/EmrE monomer, pH 5.8; 1.1 GHz, MAS 25 kHz, sample temperature 10 ± 5 °C",
  "data": [
    {"protein": "B1", "values": [
      {"measurement": "binding result", "result": "binds"}
    ]}
  ]
}
